From the supplement of paper PMC9112550, “Optimization of the antimicrobial peptide Bac7 by deep mutational scanning” (BMC Biology, 2022)

Test system: Escherichia coli TOP10
Test: shrunken log2 fold change of peptide-encoding DNA abundance (4.5 h post-induction vs induction); higher = less antimicrobial activity (less host growth inhibition)
Details: time post-induction: 4.5 h; library: site-saturation at positions 5, 18, 19, 20
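Further: peptides expressed intracellularly from a pBAD plasmid library in pooled LB shake-flask culture, induced with 0.3% L-arabinose, DNA abundance read by NGS, three biological replicates, DESeq2 with apeglm shrinkage.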

| Sequence | shrunken log2 fold change |
| --- | --- |
| RRIRGRPPRLPRPRPRPQFVPRP | 0.0536 |
| RRIRMRPPRLPRPRPRPDPKPRP | -0.000946 |
| RRIRFRPPRLPRPRPRPGFMPRP | -0.242 |
| RRIRERPPRLPRPRPRPYKGPRP | -0.0341 |
| RRIRNRPPRLPRPRPRPDMGPRP | -0.00968 |
| RRIRNRPPRLPRPRPRPIFVPRP | -0.0459 |
| RRIRERPPRLPRPRPRPPEPPRP | 0.333 |
| RRIRCRPPRLPRPRPRPEMAPRP | 0.532 |
| RRIRMRPPRLPRPRPRPDGQPRP | 1.15 |
| RRIRKRPPRLPRPRPRPWLKPRP | 0.0705 |
| RRIRLRPPRLPRPRPRPTRKPRP | 0.374 |
| RRIRIRPPRLPRPRPRPCNCPRP | 0.174 |
| RRIRVRPPRLPRPRPRPDLKPRP | 0.00797 |
| RRIRFRPPRLPRPRPRPFHHPRP | -0.976 |
| RRIRLRPPRLPRPRPRPLWLPRP | -0.0303 |
| RRIRLRPPRLPRPRPRPFGDPRP | -0.186 |
| RRIRGRPPRLPRPRPRPQEAPRP | 0.492 |
| RRIRERPPRLPRPRPRPKYNPRP | -0.7 |
| RRIRVRPPRLPRPRPRPVEKPRP | 0.265 |
| RRIRGRPPRLPRPRPRPNNIPRP | -0.163 |
| RRIRQRPPRLPRPRPRPSGEPRP | 0.0168 |
| RRIRHRPPRLPRPRPRPGQWPRP | 0.318 |

| Sequence | shrunken log2 fold change |
| --- | --- |
| RRIRQRPPRLPRPRPRPFQIPRP | 0.0399 |
| RRIRYRPPRLPRPRPRPHPYPRP | -0.449 |
| RRIRRRPPRLPRPRPRPKPGPRP | 0.535 |
| RRIRARPPRLPRPRPRPAAEPRP | 1.6 |
| RRIRQRPPRLPRPRPRPWMGPRP | 0.063 |
| RRIRIRPPRLPRPRPRPDYLPRP | -0.0127 |
| RRIRSRPPRLPRPRPRPLGNPRP | -0.43 |
| RRIRFRPPRLPRPRPRPIGWPRP | -0.0252 |
| RRIRERPPRLPRPRPRPIVMPRP | -0.86 |
| RRIRARPPRLPRPRPRPIKCPRP | -0.249 |
| RRIRSRPPRLPRPRPRPAIKPRP | -0.352 |
| RRIRIRPPRLPRPRPRPRIWPRP | 0.063 |
| RRIRKRPPRLPRPRPRPRQYPRP | 0.0199 |
| RRIRARPPRLPRPRPRPTVQPRP | 0.549 |
| RRIRARPPRLPRPRPRPEEEPRP | 0.178 |
| RRIRMRPPRLPRPRPRPSLRPRP | 0.626 |
| RRIRRRPPRLPRPRPRPFIHPRP | -0.18 |
| RRIRTRPPRLPRPRPRPANDPRP | -0.116 |
| RRIRARPPRLPRPRPRPSDHPRP | -0.134 |
| RRIRVRPPRLPRPRPRPFDHPRP | -0.557 |
| RRIRLRPPRLPRPRPRPCSTPRP | -0.0337 |
| RRIRYRPPRLPRPRPRPRTNPRP | -0.492 |

| Sequence | shrunken log2 fold change |
| --- | --- |
| RRIRPRPPRLPRPRPRPYPPPRP | -0.537 |
| RRIRERPPRLPRPRPRPYWGPRP | -0.346 |
| RRIRMRPPRLPRPRPRPYIDPRP | -0.227 |
| RRIRARPPRLPRPRPRPQIDPRP | 0.427 |
| RRIRNRPPRLPRPRPRPKVDPRP | 0.147 |
| RRIRIRPPRLPRPRPRPGAHPRP | -0.0753 |
| RRIRHRPPRLPRPRPRPSTLPRP | -0.0931 |
| RRIRPRPPRLPRPRPRPRQNPRP | 0.463 |
| RRIRVRPPRLPRPRPRPIILPRP | -0.483 |
| RRIRPRPPRLPRPRPRPFMPPRP | -0.793 |
| RRIRCRPPRLPRPRPRPDCAPRP | 0.515 |
| RRIRHRPPRLPRPRPRPLCHPRP | -0.44 |
| RRIRNRPPRLPRPRPRPHAPPRP | 0.0879 |
| RRIRLRPPRLPRPRPRPMFKPRP | -0.245 |
| RRIRTRPPRLPRPRPRPRIMPRP | -0.254 |
| RRIRDRPPRLPRPRPRPRKSPRP | -0.0168 |
| RRIRGRPPRLPRPRPRPSSCPRP | 0.316 |
| RRIRRRPPRLPRPRPRPDMIPRP | -0.0332 |
| RRIRRRPPRLPRPRPRPWSIPRP | 0.0651 |
| RRIRYRPPRLPRPRPRPKSQPRP | -0.176 |
| RRIRARPPRLPRPRPRPRAGPRP | 0.896 |
| RRIRSRPPRLPRPRPRPWFPPRP | -0.331 |

| Sequence | shrunken log2 fold change |
| --- | --- |
| RRIRKRPPRLPRPRPRPCFRPRP | -0.0108 |
| RRIRCRPPRLPRPRPRPEGYPRP | 0.461 |
| RRIRCRPPRLPRPRPRPSLGPRP | -0.0171 |
| RRIRERPPRLPRPRPRPKWWPRP | 0.397 |
| RRIRRRPPRLPRPRPRPMHVPRP | 0.281 |
| RRIRRRPPRLPRPRPRPGLNPRP | -0.0395 |
| RRIRTRPPRLPRPRPRPRGGPRP | 0.334 |
| RRIRTRPPRLPRPRPRPNNNPRP | -0.451 |
| RRIRYRPPRLPRPRPRPKNAPRP | -0.186 |
| RRIRCRPPRLPRPRPRPMIWPRP | -0.0837 |
| RRIRCRPPRLPRPRPRPPCIPRP | 0.0428 |
| RRIRYRPPRLPRPRPRPVDLPRP | 0.0483 |
| RRIRKRPPRLPRPRPRPMQRPRP | 0.744 |
| RRIRHRPPRLPRPRPRPVQMPRP | 0.0393 |
| RRIRRRPPRLPRPRPRPQEMPRP | 0.51 |
| RRIRIRPPRLPRPRPRPKHKPRP | -0.508 |
| RRIRWRPPRLPRPRPRPEFYPRP | -0.129 |
| RRIRIRPPRLPRPRPRPCVTPRP | -0.22 |
| RRIRLRPPRLPRPRPRPIKSPRP | -0.202 |
| RRIRQRPPRLPRPRPRPEFPPRP | -0.0498 |
| RRIRYRPPRLPRPRPRPYLMPRP | -0.254 |
| RRIRHRPPRLPRPRPRPKPFPRP | 0.0272 |

| Sequence | shrunken log2 fold change |
| --- | --- |
| RRIRNRPPRLPRPRPRPSSTPRP | -0.201 |
| RRIRVRPPRLPRPRPRPFIGPRP | -0.291 |
| RRIRMRPPRLPRPRPRPHANPRP | 0.0143 |
| RRIRKRPPRLPRPRPRPCFSPRP | -0.51 |
| RRIRNRPPRLPRPRPRPMSHPRP | -0.249 |
| RRIRTRPPRLPRPRPRPRRNPRP | 0.125 |
| RRIRIRPPRLPRPRPRPGETPRP | 0.0122 |
| RRIRARPPRLPRPRPRPKHGPRP | 0.246 |
| RRIRYRPPRLPRPRPRPVEFPRP | -1.06 |
| RRIRHRPPRLPRPRPRPQWMPRP | 0.0263 |
| RRIRRRPPRLPRPRPRPSRFPRP | 0.536 |
| RRIRFRPPRLPRPRPRPKDVPRP | -0.00433 |
| RRIRVRPPRLPRPRPRPIHAPRP | 0.098 |
| RRIRDRPPRLPRPRPRPARHPRP | 0.368 |
| RRIRCRPPRLPRPRPRPCDHPRP | 0.0959 |
| RRIRDRPPRLPRPRPRPVSVPRP | -0.0329 |
| RRIRWRPPRLPRPRPRPVFAPRP | 0.394 |
| RRIRWRPPRLPRPRPRPGYTPRP | -0.13 |
| RRIRLRPPRLPRPRPRPHSCPRP | -0.884 |
| RRIRHRPPRLPRPRPRPKKEPRP | -0.0501 |
| RRIRPRPPRLPRPRPRPCISPRP | -0.0753 |
